According to PMC4321091, “Recombinant Cyclodextrinase from Thermococcus kodakarensis KOD1: Expression, Purification, and Enzymatic Characterization” (Archaea, 2015):

Substrate: OC[C@H]1O[C@@H]2O[C@H]3[C@H](O)[C@@H](O)[C@@H](O[C@H]4[C@H](O)[C@@H](O)[C@@H](O[C@H]5[C@H](O)[C@@H](O)[C@@H](O[C@H]6[C@H](O)[C@@H](O)[C@@H](O[C@H]7[C@H](O)[C@@H](O)[C@@H](O[C@H]8[C@H](O)[C@@H](O)[C@@H](O[C@H]1[C@H](O)[C@H]2O)O[C@@H]8CO)O[C@@H]7CO)O[C@@H]6CO)O[C@@H]5CO)O[C@@H]4CO)O[C@@H]3CO
Assay: purified protein
Format: biochemical, Thermococcus kodakarensis
Details: 20 mM Tris-HCl pH 7.5, 65°C, 1-10 mg/mL β-CD

B1: CDase-Tk (Tk1770) (Thermococcus kodakarensis KOD1) (protein)
chain: MYKVFGFEENFIHGRVARVEFSLPDAGRWDYAYLLGNFNAFNEGSFRMKHEDKRWIIEIKLPEGLWRYAFSAGGEFLLDPENPEKELYRRPSYKFEREVSLAKIAGNDMVFHRPALLYLYSFGDRTHVLLRSKKGKVDAAYLVTDDTHVKMRKKADGEVFEYYEAVLQETEKLRYSFEVFLKEGKSLTLGPFEAAPFRLDAPSWILDRVFYQIMPDRFAKGRDHEPPFLSWEYYGGDLWGIVEKIDHLEELGVNALYLTPIFESMTYHGYDITDYLRVAERLGGEEAFRELVKALKSRDIKLVLDGVFHHTSFFHPFFRDVVERGEESEYADFYRVKGFPVVSEEFIRVLKSDLPPMEKYQTLKKMGWNYESFFSVWVMPRLNHDSPKVREFVARVMNYWLEKGADGWRLDVAHGVPPGFWREVREGLPDDAYLFGEVMDDPRLYLFGVFHGVMNYPLYDLLLRFFAFGEIGATEFINGIELLSAHLGPAEYFTYNFLDNHDTERFIDLAGKERYLCALTFLMTYKGIPAIFYGDEIGLRGSGEGMSAGRTPMSWDEEKWDFQILRQTMKLIELRRSLKSLQVGSFRVIGAGEKWFVYERKAGSERVLVGINCSWNDVETPVPSNGSNEQIKIPAFSSIIRVKDSMNVHIGSDLQE
notes: pET28a EcoRI/XhoI, E. coli BL21(DE3), DEAE purified
Km: 3.13 ± 0.47 mg/mL | kcat: 34.6 s⁻¹
